Data from article PMC9482650, “Quantitative fragmentomics allow affinity mapping of interactomes” (Nature Communications, 2022).

Columns and labels:
Assay in all cases: holdup assay
Set-up in all cases: key: below the threshold = too weak to quantify, mostly under pKd 3.1 to 4
LIN7C, Q9NUP9 = biological target: T1, LIN7C, Q9NUP9
T1 sequence (Q9NUP9 88-185, limits assumed, looked up): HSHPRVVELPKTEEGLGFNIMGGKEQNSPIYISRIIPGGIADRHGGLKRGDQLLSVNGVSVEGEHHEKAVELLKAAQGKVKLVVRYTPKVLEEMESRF

DFNB31_2, Q9P202 = biological target: T2, DFNB31_2, Q9P202
T2 sequence (Q9P202 274-371, limits assumed, looked up): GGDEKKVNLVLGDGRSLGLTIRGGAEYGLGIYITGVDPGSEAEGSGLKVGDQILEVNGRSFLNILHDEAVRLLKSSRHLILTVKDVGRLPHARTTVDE

PDZD2_1, O15018 = biological target: T3, PDZD2_1, O15018
T3 sequence (O15018 80-192, limits assumed, looked up): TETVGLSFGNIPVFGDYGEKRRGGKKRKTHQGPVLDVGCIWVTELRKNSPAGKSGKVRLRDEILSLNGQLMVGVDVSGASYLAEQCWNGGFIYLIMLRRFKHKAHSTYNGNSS

MAGI3_4, Q5TCQ9 = biological target: MAGI3_4, Q5TCQ9
Sequence of MAGI3_4, Q5TCQ9 (Q5TCQ9 716-815): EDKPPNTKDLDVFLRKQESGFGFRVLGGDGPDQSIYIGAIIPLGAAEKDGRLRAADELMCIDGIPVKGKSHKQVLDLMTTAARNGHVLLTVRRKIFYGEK

PDZD11, Q5EBL8 = biological target: T4, PDZD11, Q5EBL8
T4 sequence (Q5EBL8 42-139, limits assumed, looked up): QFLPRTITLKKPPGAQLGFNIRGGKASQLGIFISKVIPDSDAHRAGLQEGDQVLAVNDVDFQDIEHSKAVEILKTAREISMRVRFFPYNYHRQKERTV

NHERF3_2, Q5T2W1 = biological target: T5, NHERF3_2, Q5T2W1
T5 sequence (Q5T2W1 129-225, limits assumed, looked up): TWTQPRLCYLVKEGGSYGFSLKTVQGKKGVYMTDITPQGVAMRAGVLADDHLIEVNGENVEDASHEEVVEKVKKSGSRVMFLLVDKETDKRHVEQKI

MPDZ_3, O75970 = biological target: T6, MPDZ_3, O75970
T6 sequence (O75970 372-473, limits assumed, looked up): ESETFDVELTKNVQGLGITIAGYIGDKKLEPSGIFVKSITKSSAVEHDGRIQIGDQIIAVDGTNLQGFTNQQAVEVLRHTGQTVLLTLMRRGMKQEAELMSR

PTPN13_4, Q12923 = biological target: T7, PTPN13_4, Q12923
T7 sequence (Q12923 1783-1878, limits assumed, looked up): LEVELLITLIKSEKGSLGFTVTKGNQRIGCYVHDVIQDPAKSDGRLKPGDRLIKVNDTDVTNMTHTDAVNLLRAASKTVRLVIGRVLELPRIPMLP

Inadl_7, Q8NI35 = biological target: Inadl_7, Q8NI35
Sequence of Inadl_7, Q8NI35 (Q8NI35 1219-1332): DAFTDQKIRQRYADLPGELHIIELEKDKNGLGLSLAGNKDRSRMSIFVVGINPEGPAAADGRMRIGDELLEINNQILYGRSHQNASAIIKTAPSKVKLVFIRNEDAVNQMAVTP

NHERF2_1, Q15599 = biological target: NHERF2_1, Q15599
Sequence of NHERF2_1, Q15599 (Q15599 9-91): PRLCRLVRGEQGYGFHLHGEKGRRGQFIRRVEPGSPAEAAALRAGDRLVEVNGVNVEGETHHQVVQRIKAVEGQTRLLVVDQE

SCRIB_4, Q14160 = biological target: SCRIB_4, Q14160
Sequence of SCRIB_4, Q14160 (Q14160 1095-1204): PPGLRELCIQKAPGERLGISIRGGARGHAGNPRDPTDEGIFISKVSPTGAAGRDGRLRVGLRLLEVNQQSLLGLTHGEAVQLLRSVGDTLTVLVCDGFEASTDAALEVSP

PDZRN4_2, Q6ZMN7 = biological target: PDZRN4_2, Q6ZMN7
Sequence of PDZRN4_2, Q6ZMN7 (Q6ZMN7 389-498): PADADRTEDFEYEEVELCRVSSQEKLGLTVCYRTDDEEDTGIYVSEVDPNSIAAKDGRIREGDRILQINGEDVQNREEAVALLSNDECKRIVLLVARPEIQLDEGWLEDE

PARD6G, Q9BYG4 = biological target: T8, PARD6G, Q9BYG4
T8 sequence (Q9BYG4 153-261, limits assumed, looked up): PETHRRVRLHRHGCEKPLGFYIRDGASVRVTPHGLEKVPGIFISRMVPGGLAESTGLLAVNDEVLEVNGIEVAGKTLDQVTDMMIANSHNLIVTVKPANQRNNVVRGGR

PREX1_1, Q8TCU6 = biological target: PREX1_1, Q8TCU6
Sequence of PREX1_1, Q8TCU6 (Q8TCU6 608-718): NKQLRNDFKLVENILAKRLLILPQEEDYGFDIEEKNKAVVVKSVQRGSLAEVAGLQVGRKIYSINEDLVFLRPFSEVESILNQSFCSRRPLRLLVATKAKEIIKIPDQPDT

MPDZ_7, O75970 = biological target: T9, MPDZ_7, O75970
T9 sequence (O75970 1146-1253, limits assumed, looked up): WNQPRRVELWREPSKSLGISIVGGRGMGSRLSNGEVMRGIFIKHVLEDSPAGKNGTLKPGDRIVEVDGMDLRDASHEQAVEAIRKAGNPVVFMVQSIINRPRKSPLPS

PDLIM3, Q53GG5 = biological target: T10, PDLIM3, Q53GG5
T10 sequence (Q53GG5 1-94, limits assumed, looked up): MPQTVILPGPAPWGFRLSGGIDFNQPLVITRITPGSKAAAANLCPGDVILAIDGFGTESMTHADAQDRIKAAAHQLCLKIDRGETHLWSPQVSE

USH1C_2, Q9Y6N9 = biological target: T11, USH1C_2, Q9Y6N9
T11 sequence (Q9Y6N9 206-303, limits assumed, looked up): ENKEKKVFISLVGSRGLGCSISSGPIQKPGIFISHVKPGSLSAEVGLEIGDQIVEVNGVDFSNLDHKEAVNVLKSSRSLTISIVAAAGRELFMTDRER

MAGI3_6, Q5TCQ9 = biological target: MAGI3_6, Q5TCQ9
Sequence of MAGI3_6, Q5TCQ9 (Q5TCQ9 1014-1103): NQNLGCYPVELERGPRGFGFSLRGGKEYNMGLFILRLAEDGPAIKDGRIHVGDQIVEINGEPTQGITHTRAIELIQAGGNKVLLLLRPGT

DVL2, O14641 = details: plain residues with an end cap or a label only (N-terminal biotin on a linker: none)
Sequence of DVL2, O14641 (O14641 260-359): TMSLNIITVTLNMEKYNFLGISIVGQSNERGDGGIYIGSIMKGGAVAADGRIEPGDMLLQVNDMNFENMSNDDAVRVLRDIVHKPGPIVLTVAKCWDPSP

CNKSR3, Q6P9H4 = biological target: CNKSR3, Q6P9H4
Sequence of CNKSR3, Q6P9H4 (Q6P9H4 203-303): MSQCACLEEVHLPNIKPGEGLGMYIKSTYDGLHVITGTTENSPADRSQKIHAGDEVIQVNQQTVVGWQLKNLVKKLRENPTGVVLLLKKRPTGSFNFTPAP

MPP5, Q8N3R9 = biological target: T12, MPP5, Q8N3R9
T12 sequence (Q8N3R9 251-346, limits assumed, looked up): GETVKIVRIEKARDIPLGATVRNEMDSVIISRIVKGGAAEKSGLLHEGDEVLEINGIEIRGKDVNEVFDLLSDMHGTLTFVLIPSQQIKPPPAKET

TJP1_1, Q07157 = biological target: TJP1_1, Q07157
Sequence of TJP1_1, Q07157 (Q07157 18-120): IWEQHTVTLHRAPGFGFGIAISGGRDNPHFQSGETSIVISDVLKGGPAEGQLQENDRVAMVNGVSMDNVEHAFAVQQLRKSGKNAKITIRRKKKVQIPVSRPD

PDZD2_4, O15018 = biological target: T13, PDZD2_4, O15018; details: plain residues with an end cap or a label only (N-terminal biotin on a linker: ttds)
T13 sequence (O15018 723-823, limits assumed, looked up): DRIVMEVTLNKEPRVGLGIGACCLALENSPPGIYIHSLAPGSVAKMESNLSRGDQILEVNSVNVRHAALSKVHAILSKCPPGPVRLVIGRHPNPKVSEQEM

[1] = plain residues with an end cap or a label only (N-terminal biotin on a linker: ttds)
[2] = plain residues with an end cap or a label only (N-terminal biotin on a linker: ahx)
[3] = plain residues with an end cap or a label only (N-terminal biotin on a linker: gsgsgs; C-terminal amide)
[4] = plain residues with an end cap or a label only (N-terminal biotin on a linker: none)
[5] = plain residues with an end cap or a label only (N-terminal biotin on a linker: ado-ado)

PVRVCEETSL [OTULIN, Q96BN8]
pKd (LIN7C, Q9NUP9; [1]): 4.06
pKd (DFNB31_2, Q9P202; [1]): 3.58

ESLLLGPSNF [SHROOM4, Q9ULL8]
pKd (LIN7C, Q9NUP9; [2]): below the threshold
pKd (DFNB31_2, Q9P202; [2]): below the threshold

VDFPPKESSL [ACVR2A, P27037]
pKd (LIN7C, Q9NUP9; [1]): 3.73
pKd (DFNB31_2, Q9P202; [1]): 3.46

EVVHTPETSV [SLC16A3, O15427]
pKd (LIN7C, Q9NUP9; [1]): 4.07
pKd (DFNB31_2, Q9P202; [1]): below the threshold

HNAFLSVTTV [PDZRN4, Q6ZMN7]
pKd (LIN7C, Q9NUP9; [2]): 3.68
pKd (DFNB31_2, Q9P202; [2]): below the threshold

YGIVQETTFDLGGDIH [MLLT4_int, P55196]
pKd (LIN7C, Q9NUP9; [3]): 3.85
pKd (DFNB31_2, Q9P202; [3]): below the threshold

NLNSSRVPDLLV [SARS-CoV2-E, P0DTC4]
pKd (PDZD2_1, O15018; [4]): below the threshold
pKd (MAGI3_4, Q5TCQ9; [4]): below the threshold
pKd (PDZD11, Q5EBL8; [4]): below the threshold
pKd (NHERF3_2, Q5T2W1; [4]): below the threshold
pKd (MPDZ_3, O75970; [4]): below the threshold
pKd (PTPN13_4, Q12923; [4]): 4.64
pKd (Inadl_7, Q8NI35; [4]): below the threshold
pKd (NHERF2_1, Q15599; [4]): below the threshold
pKd (SCRIB_4, Q14160; [4]): below the threshold
pKd (LIN7C, Q9NUP9; [4]): below the threshold
pKd (PDZRN4_2, Q6ZMN7; [4]): below the threshold
pKd (DFNB31_2, Q9P202; [4]): below the threshold
pKd (PARD6G, Q9BYG4; [4]): below the threshold
pKd (PREX1_1, Q8TCU6; [4]): below the threshold
pKd (MPDZ_7, O75970; [4]): below the threshold
pKd (PDLIM3, Q53GG5; [4]): below the threshold
pKd (USH1C_2, Q9Y6N9; [4]): below the threshold
pKd (MAGI3_6, Q5TCQ9; [4]): below the threshold
pKd (DVL2, O14641): below the threshold
pKd (CNKSR3, Q6P9H4; [4]): below the threshold
pKd (MPP5, Q8N3R9; [4]): 4.01
pKd (TJP1_1, Q07157; [4]): below the threshold

RRRKRKRTYL [HPV49-L2, P36762]
pKd (LIN7C, Q9NUP9; [2]): below the threshold
pKd (DFNB31_2, Q9P202; [2]): below the threshold

NRKREIFSNF [NHERF2, Q15599]
pKd (LIN7C, Q9NUP9; [2]): below the threshold
pKd (DFNB31_2, Q9P202; [2]): below the threshold

RAVEEEESRF [PSCDBP, O60759]
pKd (LIN7C, Q9NUP9; [2]): below the threshold
pKd (DFNB31_2, Q9P202; [2]): below the threshold

SDSSGQEYSL [KCTD3, Q9Y597]
pKd (LIN7C, Q9NUP9; [2]): below the threshold
pKd (DFNB31_2, Q9P202; [2]): below the threshold

TVICWPGSLV [LNX2, Q8N448]
pKd (LIN7C, Q9NUP9; [2]): 4.98
pKd (DFNB31_2, Q9P202; [2]): below the threshold

DKDPHSETAL [TMIGD1, Q6UXZ0]
pKd (LIN7C, Q9NUP9; [1]): below the threshold
pKd (DFNB31_2, Q9P202; [1]): below the threshold

KKYVDAETSL [SLC4A7, Q9Y6M7]
pKd (LIN7C, Q9NUP9; [1]): 3.81
pKd (DFNB31_2, Q9P202; [1]): 3.5

PRVKPQRSKV [PPP1R13L, Q8WUF5]
pKd (LIN7C, Q9NUP9; [1]): below the threshold
pKd (DFNB31_2, Q9P202; [1]): below the threshold

NDPAWDETNL [ARHGEF7, Q14155;Q14155-1]
pKd (LIN7C, Q9NUP9; [1]): below the threshold
pKd (DFNB31_2, Q9P202; [1]): below the threshold

PSASCAVTAA [PDLIM4, P50479;P50479-2]
pKd (LIN7C, Q9NUP9; [2]): below the threshold
pKd (DFNB31_2, Q9P202; [2]): below the threshold

VSVDDVRSTSQGLSSY [DFNB31_int, Q9P202]
pKd (LIN7C, Q9NUP9; [3]): 4.12
pKd (DFNB31_2, Q9P202; [3]): below the threshold

FHPLGADSQV [SLC2A1, P11166]
pKd (LIN7C, Q9NUP9; [1]): below the threshold
pKd (DFNB31_2, Q9P202; [1]): below the threshold

PLSPEQPTKL [TRIM50, Q86XT4]
pKd (LIN7C, Q9NUP9; [5]): 3.82
pKd (DFNB31_2, Q9P202; [5]): below the threshold

GYDWGPATDL [TJP3, O95049]
pKd (LIN7C, Q9NUP9; [2]): 3.71
pKd (DFNB31_2, Q9P202; [2]): below the threshold

EMDRRPATVV [PLCB4, Q15147]
pKd (LIN7C, Q9NUP9; [1]): below the threshold
pKd (DFNB31_2, Q9P202; [1]): 3.51

LSDPSVSTVV [GRIN1, Q05586;Q05586-2]
pKd (LIN7C, Q9NUP9; [2]): below the threshold
pKd (DFNB31_2, Q9P202; [2]): below the threshold

SSLQSLETSV [ATP2B4, P23634]
pKd (PDZD2_1, O15018; [1]): below the threshold
pKd (MAGI3_4, Q5TCQ9; [1]): below the threshold
pKd (PDZD11, Q5EBL8; [1]): below the threshold
pKd (NHERF3_2, Q5T2W1; [1]): below the threshold
pKd (MPDZ_3, O75970; [1]): below the threshold
pKd (PTPN13_4, Q12923; [1]): below the threshold
pKd (Inadl_7, Q8NI35; [1]): below the threshold
pKd (NHERF2_1, Q15599; [1]): below the threshold
pKd (SCRIB_4, Q14160; [1]): 4.38
pKd (LIN7C, Q9NUP9; [1]): 4.8
pKd (PDZRN4_2, Q6ZMN7; [1]): 4.24
pKd (DFNB31_2, Q9P202; [1]): below the threshold
pKd (PARD6G, Q9BYG4; [1]): below the threshold
pKd (PREX1_1, Q8TCU6; [1]): below the threshold
pKd (PDZD2_4, O15018): below the threshold
pKd (MPDZ_7, O75970; [1]): below the threshold
pKd (PDLIM3, Q53GG5; [1]): below the threshold
pKd (USH1C_2, Q9Y6N9; [1]): below the threshold
pKd (MAGI3_6, Q5TCQ9; [1]): below the threshold
pKd (CNKSR3, Q6P9H4; [1]): below the threshold
pKd (MPP5, Q8N3R9; [1]): below the threshold
pKd (TJP1_1, Q07157; [1]): below the threshold
